The nanobody polyreactivity screen of Harvey et al. (2022)

Assay: yeast display, Sf9 membrane polyspecificity reagent, FACS + sequencing; frameworks hold sequencing errors
How it was run: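 After 36–48 hours of galactose induction, yeast (Saccharomyces cerevisiae BJ5465) displaying a synthetic nanobody library were stained at 4 °C for 1 hour with 10% biotinylated, detergent-solubilized Sf9 membrane reagent. Streptavidin microbeads enriched the stained cells before FACS sorting into low and high (top ~1%) gates on anti-HA and streptavidin fluorescence. Each clone's polyreactivity label reflects its gate of origin.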

Sequence | polyreactivity (PSR sort gate)
QFQLVESGGGLVQAGGSLRLSCAASGFTLRTYAMGWYRQAPGKERELVAAITVSGGTYYADSVKGRFTISRDNAKYTVYLQMNSLKPEDTAVYYCTAKRFGTGFDYWGQGTQVTVSS | low polyreactivity
QVQLVESGGGLVQAGGSLRLSCAASGFTFGYYAMGWYRQAPGKERELVAAISSSGGRTYYADSVKGRFTISRDNAKNTVYLQMNSMKPEDTAVYYCAAVYIRYPIQYSLLRYDYWGQGTQVTVSA | high polyreactivity
QVQLVESGGGLVQAGGSLRLSCAASGITYSYNAMGWSRQAPGKERELVAAISSNSDSTYFADSVMGRFTISRDNAKNTVYLQMNSLKPEDTAVYYCAADTPDAAVYSGFYYWGQGTQVTVSS | low polyreactivity
QVQLVESGGGLVQAGGSLRLSCAASGYTFLYYAMGWYRQAPGKEREFVAAISRSGGSTYYADSVKGRFTISRDNAKNTVYLQMNSLKPEDTAVYYCAKDHPSGRQYDYWGQGTQVTVSS | high polyreactivity
QVQLVESGGGLVQAGGSLRLSCAASGRTVYKNTMGWYRQAPGKERELVAAISIRGGSTYYADSVKGRFTISRDNAKNTVYLQMNSLKPEDTAVYYCNVVYQKAARIVDFDYWGQGTQVTVSS | high polyreactivity
QVQLVESGGGLVQAGGSLRLSCAASGNTIYKYTMGWSRQAPGKERELVAVISSSSGSTYYADSVKGRFTISRDNAKNTVYLQMNSLKPEDTAVYYCNKRGWWDLRHDYWGQGTQVTVSS | low polyreactivity
QVQLVESGGGLVQAGRSLRLSCAASGSTFKYNAMGWYRQAPGKERELVASISRSGGSTYYADSVKGRFTISRDNAKNTVYLQMNSLKPEDTAGYYCNVRRFVHYEYWGQGSQVTVSS | high polyreactivity
QVQLVESGGGLVQAGGSLRLSCAASGRIFLYYTMGWYRQAPGKERELDAAITRSGGSTYYADSVKGRFTISRDNAKNTDYLQMNSLKPEDTAVYYCNRAYVRYVPMNYWGQGTQVTVSS | high polyreactivity
QVQLVESGGGLVQAGGSLRLSCAASGRIFIQYGMVWYRQAPGKERELVAAIRSGDSTNYADSVKGRFTISRDNAKNTVYLQMNSLKPEDTSVYYCARDRPGDYAGYDYWGQGTQVTVSS | low polyreactivity
QVQLVESGRGLVQAGGSLRLSCAASGFIFNLYAMGWYRQAPGKERELVAAISGGGSTYYAYSVKGRFTISRDNAKNTVYLQMISLKPEDNAVYYCAKKGGHRTYGYDSWGQGTQVTVSS | low polyreactivity
QVQLVESGGGLVQAGGSLRLSCASSGRIFPWNTMGWYRQAPGKERELVAGINNGDRTYYADSVKGRFTISRDNAKNRVYLQMNSLKPDETAVYYCARDDNPIYSGVTYDSWGQGTQVSVSS | low polyreactivity
QVQLVESGGGLVQAGGSLRLSCAASVITSPYAMGWYRQAPGKERELVAAISWSGSSTYYADSVKGRFTISRDNAKNTVYLQINSLKPEDTAVYYCATLVSDSRSRRFGYEYWGQGSQVTVSS | high polyreactivity
QVQLVESGGGLVQAGGSLRLSCAASGSTFDSYAMGWYRQAPGKERELVAAISYNGSSTYYADSVKGRFTISRDNAKNTVYLQMNSLKPEDTAVYYCAAAPGFSAGHHDYWGQGTQVTVSS | low polyreactivity
QVQLVESGVGLVQAGGSLRLSCAASGSILSGYAMGWYRQAPGKERELVAAINDGGGTNYADSVKGRFTISRDNAKNTVYLQMNSLKPEDTAVYYCNKVYYFQRRLTPVYLMDYWGQGTQVTVSS | low polyreactivity
QVQLVESGGGLVQAGGSLRLSCAASGSTFLNYAMGWYRQAPWKERELVAAISGRGGRTYYADSVKGRFTISRDNATNTVYLQMNSLKPEDTAVYYCANKRRGGYLYRQELDYWGQGTQVTVSS | high polyreactivity
QVQLVESGGGLVQAGGSLRLSCAASGSILYYNAMGWYRQAPGKEREFVAAISDSGSSTYYADSVKGRFTITRDNAKNTVYLQMNSLKPEDTAVYYCNTEIYVDIISDYGYWGQGTQVTVSS | low polyreactivity
QVQLVESGGGLVQAGGSLRLSCAASGRTFGYNGKGWYRQAPGKERELVAAINSGGNTNYAESVKGRFTISRDNAKNTVYLQMNSLKPEDTAVYYCAKYGTLYEPVPNEYDNWGQGTQVTVSS | low polyreactivity
